T1: DFNB31_1, Q9P202
T1 sequence (Q9P202 135-233, limits assumed, looked up): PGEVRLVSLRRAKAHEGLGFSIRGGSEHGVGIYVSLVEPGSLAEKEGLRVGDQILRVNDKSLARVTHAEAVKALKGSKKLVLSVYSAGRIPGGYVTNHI

T2: DFNB31_2, Q9P202
T2 sequence (Q9P202 274-371, limits assumed, looked up): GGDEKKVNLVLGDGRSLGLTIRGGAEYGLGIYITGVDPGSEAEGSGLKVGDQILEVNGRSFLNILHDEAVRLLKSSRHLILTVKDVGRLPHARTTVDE

T3: DLG3_3, Q92796
T3 sequence (Q92796 374-475, limits assumed, looked up): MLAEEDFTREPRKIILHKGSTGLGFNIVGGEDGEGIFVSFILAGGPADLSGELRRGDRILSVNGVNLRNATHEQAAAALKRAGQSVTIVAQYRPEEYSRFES

T4: DVL3, Q92997
T4 sequence (Q92997 244-331, limits assumed, looked up): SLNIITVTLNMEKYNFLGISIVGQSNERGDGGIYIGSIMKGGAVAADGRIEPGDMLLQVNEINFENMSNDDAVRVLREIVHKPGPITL

T5: HTRA4, P83105
T5 sequence (P83105 378-476, limits assumed, looked up): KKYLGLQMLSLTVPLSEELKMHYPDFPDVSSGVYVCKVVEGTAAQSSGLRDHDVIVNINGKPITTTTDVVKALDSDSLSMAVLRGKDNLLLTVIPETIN

T6: LIN7B, Q9HAP6
T6 sequence (Q9HAP6 88-185, limits assumed, looked up): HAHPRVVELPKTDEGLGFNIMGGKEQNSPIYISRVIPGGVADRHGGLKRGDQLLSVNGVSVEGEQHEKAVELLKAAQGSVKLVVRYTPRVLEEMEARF

T7: MPDZ_10, O75970
T7 sequence (O75970 1624-1722, limits assumed, looked up): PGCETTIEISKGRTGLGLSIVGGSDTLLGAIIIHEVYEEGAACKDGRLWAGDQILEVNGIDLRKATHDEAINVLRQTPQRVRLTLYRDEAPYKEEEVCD

T8: NHERF3_1, Q5T2W1
T8 sequence (Q5T2W1 4-100, limits assumed, looked up): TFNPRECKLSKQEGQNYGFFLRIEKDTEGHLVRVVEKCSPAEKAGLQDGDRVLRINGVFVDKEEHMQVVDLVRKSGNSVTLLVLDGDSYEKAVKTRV

T9: RAPGEF6, Q8TEU7
T9 sequence (Q8TEU7 525-625, limits assumed, looked up): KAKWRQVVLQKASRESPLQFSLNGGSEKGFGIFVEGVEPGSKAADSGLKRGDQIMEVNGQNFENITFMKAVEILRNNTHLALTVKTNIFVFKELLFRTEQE

T10: SNTA1, Q13424
T10 sequence (Q13424 82-180, limits assumed, looked up): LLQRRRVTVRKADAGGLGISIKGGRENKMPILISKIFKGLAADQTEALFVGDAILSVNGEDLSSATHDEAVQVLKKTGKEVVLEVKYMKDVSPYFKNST

T11: SNTG1, Q9NSN8
T11 sequence (Q9NSN8 52-150, limits assumed, looked up): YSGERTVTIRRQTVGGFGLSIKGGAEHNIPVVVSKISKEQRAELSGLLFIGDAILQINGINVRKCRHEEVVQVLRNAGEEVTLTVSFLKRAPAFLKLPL

T12: SNTG2, Q9NY99
T12 sequence (Q9NY99 68-166, limits assumed, looked up): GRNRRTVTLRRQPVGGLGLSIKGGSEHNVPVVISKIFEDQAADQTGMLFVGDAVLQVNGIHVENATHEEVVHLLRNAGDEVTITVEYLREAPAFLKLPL

T13: TIAM2, Q8IVF5
T13 sequence (Q8IVF5 885-986, limits assumed, looked up): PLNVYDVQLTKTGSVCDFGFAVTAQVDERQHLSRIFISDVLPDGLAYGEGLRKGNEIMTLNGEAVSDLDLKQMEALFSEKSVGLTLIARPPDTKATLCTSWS


Experiments:
Assay in all cases: holdup assay
Design in all cases: key: below the threshold = too weak to quantify, mostly under pKd 3.1 to 4
Settings in all cases: plain residues with an end cap or a label only (N-terminal biotin on a linker: ado-ado)
DFNB31_1, Q9P202 = molecular target: T1, DFNB31_1, Q9P202
DFNB31_2, Q9P202 = molecular target: T2, DFNB31_2, Q9P202
DLG3_3, Q92796 = molecular target: T3, DLG3_3, Q92796
DLG5_1, Q8TDM6 = molecular target: DLG5_1, Q8TDM6
Chain of DLG5_1, Q8TDM6 (Q8TDM6 617-713): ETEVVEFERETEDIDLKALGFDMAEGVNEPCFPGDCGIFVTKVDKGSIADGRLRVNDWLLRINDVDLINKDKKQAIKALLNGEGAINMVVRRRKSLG

DVL3, Q92997 = molecular target: T4, DVL3, Q92997
FRMPD2_3, Q68DX3 = molecular target: FRMPD2_3, Q68DX3
Chain of FRMPD2_3, Q68DX3 (Q68DX3 1073-1166): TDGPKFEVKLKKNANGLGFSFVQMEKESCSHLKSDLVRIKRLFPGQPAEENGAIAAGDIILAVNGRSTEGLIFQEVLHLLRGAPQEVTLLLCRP

GORASP2, Q9H8Y8 = molecular target: GORASP2, Q9H8Y8
GRIP2_5, Q9C0E4 = molecular target: GRIP2_5, Q9C0E4
Chain of GRIP2_5, Q9C0E4 (Q9C0E4 544-642): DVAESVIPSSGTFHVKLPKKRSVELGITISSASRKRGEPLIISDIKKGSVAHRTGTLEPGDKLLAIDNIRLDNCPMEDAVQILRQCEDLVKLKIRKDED

HTRA4, P83105 = molecular target: T5, HTRA4, P83105
IL16_1, Q14005 = molecular target: IL16_1, Q14005
Chain of IL16_1, Q14005 (Q14005 210-306): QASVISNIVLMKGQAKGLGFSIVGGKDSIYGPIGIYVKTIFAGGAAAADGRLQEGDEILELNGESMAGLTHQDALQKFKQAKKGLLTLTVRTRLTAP

IL16_4, Q14005 = molecular target: IL16_4, Q14005
Chain of IL16_4, Q14005 (Q14005 1229-1329): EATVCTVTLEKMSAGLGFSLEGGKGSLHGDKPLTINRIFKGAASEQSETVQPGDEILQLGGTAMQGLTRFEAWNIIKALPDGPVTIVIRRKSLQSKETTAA

Inadl_8, Q8NI35 = molecular target: Inadl_8, Q8NI35
Chain of Inadl_8, Q8NI35 (Q8NI35 1425-1530): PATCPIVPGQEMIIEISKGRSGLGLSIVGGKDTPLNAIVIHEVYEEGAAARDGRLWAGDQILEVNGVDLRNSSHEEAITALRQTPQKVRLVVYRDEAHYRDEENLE

LIMK2, P53671 = molecular target: LIMK2, P53671
Chain of LIMK2, P53671 (P53671 143-248): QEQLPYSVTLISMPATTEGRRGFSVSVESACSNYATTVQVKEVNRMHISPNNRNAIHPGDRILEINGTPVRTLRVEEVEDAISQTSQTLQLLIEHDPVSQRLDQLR

LIN7B, Q9HAP6 = molecular target: T6, LIN7B, Q9HAP6
MPDZ_10, O75970 = molecular target: T7, MPDZ_10, O75970
NHERF3_1, Q5T2W1 = molecular target: T8, NHERF3_1, Q5T2W1
NOS1, P29475 = molecular target: NOS1, P29475
Chain of NOS1, P29475 (P29475 9-101): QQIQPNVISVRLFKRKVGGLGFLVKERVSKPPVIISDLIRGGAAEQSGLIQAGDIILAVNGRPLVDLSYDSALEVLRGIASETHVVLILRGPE

PARD3_3, Q8TEW0 = molecular target: PARD3_3, Q8TEW0
Chain of PARD3_3, Q8TEW0 (Q8TEW0 582-685): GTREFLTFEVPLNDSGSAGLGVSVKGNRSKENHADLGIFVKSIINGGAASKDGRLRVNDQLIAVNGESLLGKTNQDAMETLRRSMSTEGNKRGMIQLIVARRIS

PDLIM1, O00151 = molecular target: PDLIM1, O00151
Chain of PDLIM1, O00151 (O00151 1-87): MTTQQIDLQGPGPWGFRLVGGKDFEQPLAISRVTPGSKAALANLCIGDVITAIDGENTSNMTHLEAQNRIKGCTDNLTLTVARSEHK

RAPGEF6, Q8TEU7 = molecular target: T9, RAPGEF6, Q8TEU7
SCRIB_1, Q14160 = molecular target: SCRIB_1, Q14160
Chain of SCRIB_1, Q14160 (Q14160 718-814): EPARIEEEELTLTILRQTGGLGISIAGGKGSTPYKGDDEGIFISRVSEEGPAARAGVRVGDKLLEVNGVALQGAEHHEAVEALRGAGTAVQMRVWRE

SNTA1, Q13424 = molecular target: T10, SNTA1, Q13424
SNTG1, Q9NSN8 = molecular target: T11, SNTG1, Q9NSN8
SNTG2, Q9NY99 = molecular target: T12, SNTG2, Q9NY99
TIAM2, Q8IVF5 = molecular target: T13, TIAM2, Q8IVF5

Row | pKd (DFNB31_1, Q9P202) | pKd (DFNB31_2, Q9P202) | pKd (DLG3_3, Q92796) | pKd (DLG5_1, Q8TDM6) | pKd (DVL3, Q92997) | pKd (FRMPD2_3, Q68DX3) | pKd (GORASP2, Q9H8Y8) | pKd (GRIP2_5, Q9C0E4) | pKd (HTRA4, P83105) | pKd (IL16_1, Q14005) | pKd (IL16_4, Q14005) | pKd (Inadl_8, Q8NI35) | pKd (LIMK2, P53671) | pKd (LIN7B, Q9HAP6) | pKd (MPDZ_10, O75970) | pKd (NHERF3_1, Q5T2W1) | pKd (NOS1, P29475) | pKd (PARD3_3, Q8TEW0) | pKd (PDLIM1, O00151) | pKd (RAPGEF6, Q8TEU7) | Binder | further results
1 | 4.01 | below the threshold | below the threshold | below the threshold | below the threshold | below the threshold | below the threshold | below the threshold | below the threshold | 4.11 | below the threshold | below the threshold | below the threshold | 3.77 | below the threshold | 4.15 | below the threshold | below the threshold | below the threshold | below the threshold | LPPPESESKV [KCNJ9, Q92806] | pKd (SCRIB_1, Q14160): below the threshold; pKd (SNTA1, Q13424): 3.99; pKd (SNTG1, Q9NSN8): 4.31; pKd (SNTG2, Q9NY99): 3.74; pKd (TIAM2, Q8IVF5): 4.05
2 | 3.51 | below the threshold | 3.85 | below the threshold | below the threshold | below the threshold | 4.15 | below the threshold | 4.33 | 3.63 | below the threshold | 4.25 | below the threshold | below the threshold | 3.75 | 3.87 | 4.07 | below the threshold | below the threshold | below the threshold | HLSTRQGTCV [ATRNL1, Q5VV63] | pKd (SCRIB_1, Q14160): 3.66; pKd (SNTA1, Q13424): 3.67; pKd (SNTG1, Q9NSN8): below the threshold; pKd (SNTG2, Q9NY99): 3.67; pKd (TIAM2, Q8IVF5): below the threshold
3 | 4.34 | below the threshold | below the threshold | below the threshold | 4.04 | below the threshold | 4.51 | below the threshold | 4.06 | 4.24 | 3.67 | 4.12 | below the threshold | below the threshold | below the threshold | below the threshold | 3.86 | 3.92 | 4.06 | below the threshold | HYPASPDSWV [CTNND2, Q9UQB3] | pKd (SCRIB_1, Q14160): 4.06; pKd (SNTA1, Q13424): 4.17; pKd (SNTG1, Q9NSN8): 4.64; pKd (SNTG2, Q9NY99): 3.72; pKd (TIAM2, Q8IVF5): below the threshold
4 | 4.01 | below the threshold | below the threshold | below the threshold | below the threshold | below the threshold | below the threshold | below the threshold | below the threshold | below the threshold | below the threshold | below the threshold | below the threshold | 3.62 | below the threshold | 5.03 | below the threshold | below the threshold | below the threshold | below the threshold | NNMAFETTHF [SLC5A12, Q1EHB4] | pKd (SCRIB_1, Q14160): 4.14; pKd (SNTA1, Q13424): below the threshold; pKd (SNTG1, Q9NSN8): below the threshold; pKd (SNTG2, Q9NY99): below the threshold; pKd (TIAM2, Q8IVF5): below the threshold
5 | 3.84 | below the threshold | below the threshold | below the threshold | below the threshold | below the threshold | below the threshold | 3.51 | below the threshold | below the threshold | 3.93 | below the threshold | below the threshold | below the threshold | below the threshold | 5.63 | below the threshold | 4.33 | below the threshold | below the threshold | LLQEEWETVM [PTH1R, Q03431] | pKd (SCRIB_1, Q14160): 3.62; pKd (SNTA1, Q13424): 4.09; pKd (SNTG1, Q9NSN8): below the threshold; pKd (SNTG2, Q9NY99): 3.95; pKd (TIAM2, Q8IVF5): below the threshold
6 | 3.56 | below the threshold | below the threshold | below the threshold | below the threshold | below the threshold | below the threshold | below the threshold | 3.89 | below the threshold | below the threshold | below the threshold | below the threshold | 3.58 | below the threshold | 4.43 | below the threshold | below the threshold | below the threshold | below the threshold | SSSVNVSSNL [CXCR1, P25024] | pKd (SCRIB_1, Q14160): below the threshold; pKd (SNTA1, Q13424): below the threshold; pKd (SNTG1, Q9NSN8): below the threshold; pKd (SNTG2, Q9NY99): below the threshold; pKd (TIAM2, Q8IVF5): below the threshold

Source: paper PMC9482650, “Quantitative fragmentomics allow affinity mapping of interactomes” (Nature Communications, 2022)
